Test results taken from patent US20170190775A1 (published 2017).
Numbering of substitutions follows the chain as printed.

Assays:
Experiment in all cases: SPR, TREM-1 variant captured by anti-His, Fab as analyte
[1] = molecular target: T1, cTREM-1-Cmyc2-His6 (construct 0238), cynomolgus TREM-1 wt (cynomolgus monkey)
T1 construct: ECD with C-terminal cmyc2-His6 tag; also called wt cTREM-1
T1 chain: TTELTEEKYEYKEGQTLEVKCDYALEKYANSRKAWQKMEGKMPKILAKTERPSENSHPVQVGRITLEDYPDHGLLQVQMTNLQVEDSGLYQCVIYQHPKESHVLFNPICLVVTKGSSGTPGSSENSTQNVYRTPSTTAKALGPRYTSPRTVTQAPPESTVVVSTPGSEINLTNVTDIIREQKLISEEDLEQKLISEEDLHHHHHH
Method: (§1) Binding studies were performed on a ProteOn Analyzer that measures molecular interactions in real time through surface plasmon resonance. Experiments were run at 25° C. and the samples were stored at 15° C. in the sample compartment. The signal (RU, response units) reported by the ProteOn is directly correlated to the mass on the individual sensor chip surfaces in six parallel flow cells. Anti-His monoclonal antibody was immobilised onto 6 parallel flow cells of a GLM sensor chip using a 1:1 mixture of 0.4 M EDAC [1-ethyl-3-(3-dimethylaminopropyl) carbodiimide hydrochloride] and 0.1 M Sulfo-NHS [N-hydroxysulfosuccinimide]. […] Immobilisation was performed with all steps in horizontal direction. […] Cell culture medium from HEK 293 cells expressing wild type or different mutated variants of human or cynomolgus TREM-1 ECD was diluted 40-60 times in running buffer (10 mM HEPES, 150 mM NaCl, 3 mM EDTA, 0.05% surfactant P20, pH 7.4). TREM-1 proteins were injected over immobilised anti-His capture antibody in the vertical direction at 30 μl/min for 60 s. […] Each Fab was injected over parallel flow cells in the horizontal direction to allow for kinetic analysis of binding to TREM-1 variants captured by anti-His antibody. Prior to injection each Fab was diluted to 0, 5.5 (in one experiment), 16.7 and 50 nM in running buffer, and injected at 100 μl/min for 250 s (association time). The dissociation time following these injections was monitored for 10 minutes. The GLM chip was regenerated after each interaction cycle of TREM-1 and Fab via two 18 s injections of 10 mM Glycine and 50 mM NaOH at 100 μl/min. This regeneration step removed the TREM-1 variants and any bound Fab from the anti-His antibody surface, and allowed for the subsequent binding of the next interaction pair.

[2] = molecular target: T2, cynomolgus TREM-1 partly humanised (construct 0239) (cynomolgus monkey)
T2 chain: T1 chain with A24T, Y28F, N30S, R32Q, E54K, P70H
Method: as §1

[3] = molecular target: T3, A24T/Y28F/N30S/R32Q/E54K-cTREM-1-Cmyc2-His6 (construct 0245), partly humanised with back mutation 6 (cynomolgus monkey)
T3 construct: the entry already carries the mutations
T3 chain: T1 chain with A24T, Y28F, N30S, R32Q, E54K
Method: as §1

[4] = molecular target: T4, A24T/Y28F/N30S/R32Q/P70H-cTREM-1-Cmyc2-His6 (construct 0244), partly humanised with back mutation 5 (cynomolgus monkey)
T4 construct: the entry already carries the mutations
T4 chain: T1 chain with A24T, Y28F, N30S, R32Q, P70H
Method: as §1

[5] = molecular target: T5, cynomolgus TREM-1 partly humanised with back mutation 1 (construct 0240) (cynomolgus monkey)
T5 construct: Printed A44A = A44 kept
T5 chain: T1 chain with Y28F, N30S, R32Q, E54K, P70H
Method: as §1

[6] = molecular target: T6, cynomolgus TREM-1 partly humanised with back mutation 3 (construct 0242) (cynomolgus monkey)
T6 construct: Printed N50N = N50 kept
T6 chain: T1 chain with A24T, Y28F, R32Q, E54K, P70H
Method: as §1

[7] = molecular target: T7, cynomolgus TREM-1 partly humanised with back mutation 2 (construct 0241) (cynomolgus monkey)
T7 construct: Printed Y48Y = Y48 kept
T7 chain: T1 chain with A24T, N30S, R32Q, E54K, P70H
Method: as §1

[8] = molecular target: T8, cynomolgus TREM-1 partly humanised with back mutation 4 (construct 0243) (cynomolgus monkey)
T8 construct: Printed R52R = R52 kept
T8 chain: T1 chain with A24T, Y28F, N30S, E54K, P70H
Method: as §1

B1: Fab region of mAb 0170 (Fab, V domains shown)
VH: EVQLVESGGGLVQPGGSLKLSCAASGFTFSTYAMHWVRQASGKGLEWVGRIRTKSSNYATYYAASVKGRFTISRDDSKNTAYLQMNSLKTEDTAVYYCTRDMGIRRQFAYWGQGTLVTVSS
VL: DIVLTQSPDSLAVSLGERATINCRASESVDTFDYSFLHWYQQKPGQPPKLLIYRASNLESGVPDRFSGSGSGTDFTLTISSLQAEDVAVYYCQQSNEDPYTFGQGTKLEIKR
notes: also called 0170 Fab; Fab 0170
Kd [1]: 1 nM | Kd [2]: 2 nM | Kd [3]: 1 nM | Kd [4]: 1 nM | Kd [5]: 2 nM | Kd [6]: 1 nM | Kd [7]: 2 nM | binding result [8]: no binding (tested: up to 50 nM Fab)
